Experimental data published in patent US20090318350A1, “PAN-HER ANTAGONISTS AND METHODS OF USE” (priority 2006, published 2009).
Like-named read-outs stand apart in the source and are kept apart here. One block for each substance: values may come before it.

Assays:
HER5 cells = conditions: cited from earlier work; for stimulation of cell proliferation in EGFR-dependent HER5 cells: isolated ligand variants, previously demonstrated
MCF-7 cells = conditions: cited from earlier work
EGFR = molecular target: T1, EGFR (Homo sapiens, UniProt P00533); test: Phage ELISA whole-cell binding, A431 cells; conditions: for Calculated binding (EC50) in A431 cells / binding properties relative to WVS and WVS-R41DL47G: phage fusion; for binding properties relative to WVS and WVS-R41DL47G / ligand binding, from the binding curves: A431 cells; for Calculated binding (EC50): A431 whole cell suspension, Abs450, Table 10; for Calculated binding (EC50) / ligand binding, from the binding curves: phage-displayed ligand
T1 construct: host or cells: A431 human epidermoid carcinoma cells, whole-cell suspension
Description: A431 cells for EGFR binding or T47D cells for HER3 binding were grown as monolayers in tissue culture flasks in media containing fetal bovine serum. Cells were trypsinized, neutralized with growth medium, washed twice with DPBS and resuspended in ice-cold PBS-Glu-T. 105 cells were transferred to 96 well plates and incubated on ice for 1 hour in the presence of varied concentrations of phage. Cells were centrifuged and washed 5× with PBS-T then incubated for one hour at room temperature with anti-M13 pVIII coat protein antibody conjugated with horseradish peroxidase (HRP). Cells again centrifuged and washed 5× with PGS-T. Color developed with TMP followed by H2SO4. Cells pelleted and supernatant transferred to optically transparent plate for measurement of absorbance at 450 nm. […]
The human epidermoid carcinoma line, A431, were obtained from ATCC. Stock cultures of A-431 were propagated in DMEM medium containing 10% fetal bovine serum. A431 cells were used to evaluate EGFR receptor binding.
(§1) The phage fusion ligand variants were then evaluated for binding using the assay described herein in both A431 cells (to investigate EGFR binding) and T47D cells (to investigate HER3 receptor binding) and EC50s were calculated.

Her-3 [1] = molecular target: T2, Her-3 (Homo sapiens, UniProt P21860); test: Phage ELISA whole-cell binding, T47D cells; design: host or cells: T47D human ductal carcinoma cells, whole-cell suspension; conditions: for Calculated binding (EC50) in T47D cells / binding properties relative to WVS and WVS-R41DL47G: phage fusion
T2 sequence (P21860 20-1342): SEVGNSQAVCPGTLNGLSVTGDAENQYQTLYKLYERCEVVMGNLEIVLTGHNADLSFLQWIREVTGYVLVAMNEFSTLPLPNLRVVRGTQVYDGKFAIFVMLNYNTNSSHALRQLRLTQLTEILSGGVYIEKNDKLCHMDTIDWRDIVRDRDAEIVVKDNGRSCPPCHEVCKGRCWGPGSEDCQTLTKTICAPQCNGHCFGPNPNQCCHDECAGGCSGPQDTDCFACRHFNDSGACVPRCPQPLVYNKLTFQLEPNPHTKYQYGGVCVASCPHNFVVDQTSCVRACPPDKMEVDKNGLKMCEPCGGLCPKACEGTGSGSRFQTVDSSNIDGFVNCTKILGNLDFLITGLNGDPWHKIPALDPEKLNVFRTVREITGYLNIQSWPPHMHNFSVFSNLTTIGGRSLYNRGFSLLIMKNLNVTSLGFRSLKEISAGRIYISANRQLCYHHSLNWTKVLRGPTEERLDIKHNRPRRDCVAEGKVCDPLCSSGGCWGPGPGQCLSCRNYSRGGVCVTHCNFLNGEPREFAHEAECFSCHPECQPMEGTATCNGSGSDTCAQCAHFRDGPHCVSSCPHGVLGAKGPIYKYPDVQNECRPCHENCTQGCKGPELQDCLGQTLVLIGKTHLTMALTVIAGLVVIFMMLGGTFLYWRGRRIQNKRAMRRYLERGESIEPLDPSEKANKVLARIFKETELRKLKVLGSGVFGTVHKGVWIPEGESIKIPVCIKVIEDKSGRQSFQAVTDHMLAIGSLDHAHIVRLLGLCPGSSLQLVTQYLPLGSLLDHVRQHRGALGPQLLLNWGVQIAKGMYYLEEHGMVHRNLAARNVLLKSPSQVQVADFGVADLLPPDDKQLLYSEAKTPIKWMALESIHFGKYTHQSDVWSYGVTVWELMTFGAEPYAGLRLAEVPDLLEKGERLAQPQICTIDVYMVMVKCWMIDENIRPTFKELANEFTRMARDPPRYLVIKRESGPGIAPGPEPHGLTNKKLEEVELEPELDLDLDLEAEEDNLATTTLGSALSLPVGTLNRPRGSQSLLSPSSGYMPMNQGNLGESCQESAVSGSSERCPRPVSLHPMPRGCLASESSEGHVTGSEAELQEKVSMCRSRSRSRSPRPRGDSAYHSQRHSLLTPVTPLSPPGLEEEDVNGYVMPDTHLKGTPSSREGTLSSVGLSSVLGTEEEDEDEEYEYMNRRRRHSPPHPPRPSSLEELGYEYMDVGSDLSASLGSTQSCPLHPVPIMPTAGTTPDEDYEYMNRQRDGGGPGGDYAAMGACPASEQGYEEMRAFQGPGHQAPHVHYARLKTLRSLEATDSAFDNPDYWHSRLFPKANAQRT
Description: (§2) A431 cells for EGFR binding or T47D cells for HER3 binding were grown as monolayers in tissue culture flasks in media containing fetal bovine serum. Cells were trypsinized, neutralized with growth medium, washed twice with DPBS and resuspended in ice-cold PBS-Glu-T. 105 cells were transferred to 96 well plates and incubated on ice for 1 hour in the presence of varied concentrations of phage. Cells were centrifuged and washed 5× with PBS-T then incubated for one hour at room temperature with anti-M13 pVIII coat protein antibody conjugated with horseradish peroxidase (HRP). Cells again centrifuged and washed 5× with PGS-T. Color developed with TMP followed by H2SO4. Cells pelleted and supernatant transferred to optically transparent plate for measurement of absorbance at 450 nm.
(§3) Theoretical estimates were also performed. “N.D.” indicates not determined. […]
(§4) Human ductal carcinoma cells were obtained from ATCC. They were maintained in RPMI 1640 medium with 2 mM L-glutamine adjusted to contain 1.5 g/L sodium bicarbonate, 4.5 g/L glucose, 10 mM HEPES, and 1.0 mM sodium pyruvate and supplemented with 0.2 Units/ml bovine insulin, 90%; fetal bovine serum, 10%. T47-D cells were used to evaluate HER3 receptor binding.
as §1

HER3 receptor = test: Phage ELISA whole-cell binding, T47D cells; design: species or system human; conditions: A431 (EGFR) versus T47D (HER3) binding, phage fusion
Description: as §2, §3
as §4, with “T47-D cells were used to evaluate HER3 receptor binding.” left out
as §1

Her-3 [2] = molecular target: T2, Her-3; conditions: particularly for Her-3; cited from earlier work
[3] = isolated ligand variants, previously demonstrated
[4] = T47D whole cell suspension, phage-displayed ligand, Abs450

Substance: BiR: heregulin/EGF chimera, amino terminal residues NSDSE replaced with heregulin SHLVK; SEQ ID NO 2 (SHLVKCPLSHDGYCLHDGVCMYIEALDKYACNCVVGYIGERCQYRDLKWWELR; Ligand Variant)
stimulation of cell proliferation in EGFR-dependent HER5 cells (HER5 cells): capable of stimulating cell proliferation | stimulation of HER5 cells (HER5 cells; stated as known): can be stimulated | stimulation of MCF-7 cells (MCF-7 cells; [3]): very weakly | stimulation of MCF-7 cells (MCF-7 cells; stated as known): can be stimulated

Substance: D4: WVS background, B-loop MYIEAYRVKT (second half YRVKT); SEQ ID 42 (Ligand Variant)
binding properties relative to WVS and WVS-R41DL47G (EGFR): intermediate binding properties | Calculated binding (EC50) in A431 cells (EGFR; Table 15, second half loop): 3.9 × 10^9 phage titer/mL | binding properties relative to WVS and WVS-R41DL47G (Her-3 [1]; T47D cells): intermediate binding properties | Calculated binding (EC50) in T47D cells (Her-3 [1]; Table 15, second half loop): 2.9 × 10^10 phage titer/mL

Substance: T1E: EGF/TGFα chimera, amino terminal residues NSDSE replaced with VVSHFND from TGF-α; SEQ ID NO 4 (VVSHFNDCPLSHDGYCLHDGVCMYIEALDKYACNCVVGYIGERCQYRDLKWWELR; Ligand Variant) [reference compound]
stimulation of cell proliferation in EGFR-dependent HER5 cells (HER5 cells): capable of stimulating cell proliferation | Estimated binding (EC50) (Her-3 [1]; [4]): 1 × 10^10 phage titer/mL

Substance: wvs-L47G: WVS background, L at position 47 replaced by G; SEQ ID NO 7 (NWVSECPLSHDGYCLHDGVCMYIEALDKYACNCVVGYIGERCQYRDGKWWELR; Ligand Variant)
Calculated binding (EC50) (EGFR): 6.6 × 10^10 phage titer/mL

Substance: wvs-R41DL47G: WVS background, R at position 41 replaced by D, L at position 47 replaced by G; SEQ ID NO 5 (NWVSECPLSHDGYCLHDGVCMYIEALDKYACNCVVGYIGEDCQYRDGKWWELR; Ligand Variant)
ligand binding, from the binding curves (EGFR): greatly attenuated | Calculated binding (EC50) (EGFR): 4.8 × 10^12 phage titer/mL | Calculated binding (EC50) in A431 cells (EGFR; Table 14, first half loop): 2.8 × 10^10 phage titer/mL | Calculated binding (EC50) in A431 cells (EGFR; Table 15, second half loop): 4.0 × 10^10 phage titer/mL | ligand binding, from the binding curves (Her-3 [1]; T47D cells, phage-displayed ligand): greatly attenuated | Calculated binding (EC50) in T47D cells (Her-3 [1]; Table 14, first half loop): 1.1 × 10^12 phage titer/mL | Calculated binding (EC50) in T47D cells (Her-3 [1]; Table 15, second half loop): 2.6 × 10^11 phage titer/mL

Further lines, with some results ahead:

Calculated binding (EC50) in A431 cells (EGFR; Table 14, first half loop): 3.6 × 10^10 phage titer/mL | Calculated binding (EC50) in T47D cells (Her-3 [1]; Table 14, first half loop): 8.6 × 10^10 phage titer/mL
Substance: D4-2: WVS background, B-loop YRVKTLDKYA (first half YRVKT); SEQ ID 43 (Ligand Variant)
receptor binding selectivity (HER3 receptor): bind only the HER3 receptor

binding properties relative to WVS and WVS-R41DL47G (EGFR): intermediate binding properties | Calculated binding (EC50) in A431 cells (EGFR; Table 15, second half loop): 5.2 × 10^9 phage titer/mL | binding properties relative to WVS and WVS-R41DL47G (Her-3 [1]; T47D cells): intermediate binding properties | Calculated binding (EC50) in T47D cells (Her-3 [1]; Table 15, second half loop): 3.1 × 10^10 phage titer/mL
Substance: E8: WVS background, B-loop MYIEATKYRG (second half TKYRG); SEQ ID 44 (Ligand Variant)

Calculated binding (EC50) (EGFR): 6.6 × 10^8 phage titer/mL | Calculated binding (EC50) in A431 cells (EGFR; Table 14, first half loop): 1.9 × 10^9 phage titer/mL | Calculated binding (EC50) in A431 cells (EGFR; Table 15, second half loop): 1.4 × 10^9 phage titer/mL | Estimated binding (EC50) (Her-3 [1]; [4]): 9 × 10^8 phage titer/mL | Calculated binding (EC50) (Her-3 [1]; T47D whole cell suspension, phage-displayed ligand, Abs450, Table 9): 9.8 × 10^9 phage titer/mL | Calculated binding (EC50) in T47D cells (Her-3 [1]; Table 14, first half loop): 7.5 × 10^9 phage titer/mL | Calculated binding (EC50) in T47D cells (Her-3 [1]; Table 15, second half loop): 7.6 × 10^9 phage titer/mL
Substance: WVS: EGF variant, amino acids 2 and 3 replaced with W and V, N-terminus NWVSE; SEQ ID NO 3 (NWVSECPLSHDGYCLHDGVCMYIEALDKYACNCVVGYIGERCQYRDLKWWELR; Ligand Variant) [reference compound]
stimulation of cell proliferation in EGFR-dependent HER5 cells (HER5 cells): capable of stimulating cell proliferation | stimulation of MCF-7 cells (MCF-7 cells; [3]): stimulated most effectively | binding affinity (Her-3 [2]): high binding affinity

ligand binding, from the binding curves (EGFR): greatly attenuated | Calculated binding (EC50) (EGFR): 5.8 × 10^11 phage titer/mL | Estimated binding (EC50) (Her-3 [1]; [4]): >1 × 10^12 phage titer/mL
Substance: wvs-R41D: WVS background, R at position 41 replaced by D; SEQ ID NO 6 (NWVSECPLSHDGYCLHDGVCMYIEALDKYACNCVVGYIGEDCQYRDLKWWELR; Ligand Variant)
